Numbering of substitutions follows the chain as printed.
B1: Antibody clone 6-z (antibody, V domains shown)
VH: EVQLVESGGGLVQPGGSLRLSCAASGFDFSRYHMSWVRQAPGKGLEWVGIIYVSDNTYYATWAKGRFTISRDNSKNTLYLQMNSLRAEDTAVYYCVRVGSFWSSKLWGQGTLVTVSS
VL: DIQMTQSPSTLSASVGDRVTITCQASENIYSSLAWYQQKPGKAPKLLIYEASNLESGVPSRFSGSGSGTEFTLTISSLQPDDFATYYCQSTYFGNSYVFAFGGGTKVEIK
notes: Humanized antibody based on clone 6; also called 6H2-z/6L2-z
B2: Antibody clone 233 (antibody, V domains shown)
VH: QEQLVESGGGLVQPEGSLTLTCTASGFSFSYYSWACWVRQAPGKGLEWIACIDGGGSRATYYASWAKGRFTISTTSSTTVTLQMTSLTAADTATYFCSRSDYNGYISYFDLWGPGTLVTVSS
VL: AFELTQTPSSVEAAVGGTVTINCQASQSIRSDLAWYQQKPGQPPKLLIYKASTLASGVPSRFRGSGSGTEYTLTISDLECADAATYYCQSYYHSSSTAFGGGTEVVVK
notes: Rabbit monoclonal antibody; also called 233H1/233L1
B3: Antibody clone 5-z (antibody, V domains shown)
VH: EVQLVESGGGLVQPGGSLRLSCAASGFSLSSNAISWVRQAPGKGLEWVGIIYASGDTYYASWAKGRFTISRDNSKNTLYLQMNSLRAEDTAVYYCARGYTTLYFWGQGTLVTVSS
VL: DIQMTQSPSSVSASVGDRVTITCQASESISTRLAWYQQKPGKAPKLLIYSASTLPSGVPSRFSGSGSGTDFTLTISSLQPEDFATYYCQGGYSSGAGTAFGGGTKVEIK
notes: Humanized antibody based on clone 5; also called 5H2-z/5L2-z
B4: Antibody clone 5 (antibody, V domains shown)
VH: QSVKESGGGLFKPTDTLTLTCTVSGFSLSSNAISWVRQAPGKGLEWIGIIYASGDTYYASWAKGRFTISKTSSTTVDLKMTSLTTEGTATYFCARGYTTLYFWGPGTLVTVSS
VL: QIVMTQTPASVSAAVGGTVTIKCQASESISTRLAWYQQKPGQPPKLLIYSASTLPSGVPSRFSGSGSGTDFTLTISGVQCDDAATYYCQGGYSSGAGTAFGGGTEVVVK
notes: Rabbit monoclonal antibody; also called 5H2/5L2
B5: Antibody clone 151 (antibody, V domains shown)
VH: QSVEESGGRLVTPGTPLTLTCTVSGFSLSSNAISWVRQAPGKGLEWIGVIDAGGSTYFASWAKGLFTISKTSSTTVDLQMTSLTTEDTATYFCARGWSRHDFWGPGTLVTVSS
VL: DVVMTQTPASVSEPVGGTVTIKCQASQSISNILAWYQQKPGQPPRLLIYSASTLASGVSSRFKASGSGTEFTLTISDLECADAATYYCQGYDSTVGVGAFGGGTEVVVK
notes: Rabbit monoclonal antibody; also called 151H1/151L1
B6: APX005M (antibody, V domains shown)
VH: QVQLVESGGGVVQPGRSLRLSCAASGFSFSSTYVCWVRQAPGKGLEWIACIYTGDGTNYSASWAKGRFTISKDSSKNTVYLQMNSLRAEDTAVYFCARPDITYGFAINFWGPGTLVTVSS
VL: DIQMTQSPSSLSASVGDRVTIKCQASQSISSRLAWYQQKPGKPPKLLIYRASTLASGVPSRFSGSGSGTDFTLTISSLQPEDVATYYCQCTGYGISWPIGGGTKVEIK
B7: Antibody clone 6 (antibody, V domains shown)
VH: QSLEESGGRLVTPGTPLTLTCTASGFDFSRYHMCWVRQAPGKGLEWIGIIYVSDNTYYATWAKGRFTISRTSTTVDLKITSPTTEDTATYFCVRVGSFWSSKLWGPGTLVTVSS
VL: DVVMTQTPASVSEPVGGTVTINCQASENIYSSLAWYQQKPGQPPKLLIYEASNLESGVSSRFSGSGSGTEFTLTISDLECADAATYYCQSTYFGNSYVFAFGGGTEVVVK
notes: Rabbit monoclonal antibody; also called 6H2/6L2
B8: Antibody clone 166 (antibody, V domains shown)
VH: B7 VH with F28L, C34N, N55D, T56S, T60S, R70K, T74A, V93A, F98V
VL: B7 VL with N22K, S31N, S32N, E50R, N53T, S59P, S63K, N95G
notes: Rabbit monoclonal antibody; also called 166H2/166L1

What was measured:
[1] = biological target: T1, CD40 protein displayed on cell surface (UniProt P25942 21-277, limits assumed); test: binding to CD40-expressing cell; method not described
T1 construct: whole, on cells; One entry for cell-surface full-length CD40 in all cell assays; also called CD40 on HEKBlue CD40L reporter cells; CD40-expressing cell
T1 sequence (P25942 21-277 limits assumed): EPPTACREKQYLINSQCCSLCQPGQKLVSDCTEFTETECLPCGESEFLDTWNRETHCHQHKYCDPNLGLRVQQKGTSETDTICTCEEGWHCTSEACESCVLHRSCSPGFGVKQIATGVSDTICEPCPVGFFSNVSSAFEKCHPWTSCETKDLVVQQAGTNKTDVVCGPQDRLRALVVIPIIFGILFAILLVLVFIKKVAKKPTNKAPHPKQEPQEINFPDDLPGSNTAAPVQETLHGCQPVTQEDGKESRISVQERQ

[2] = biological target: T2, recombinant CD40 ECD-Fc fusion protein (UniProt P25942 21-193, limits assumed, biotinylated (site not stated)); test: BLI (Octet), biotinylated CD40 ECD-Fc captured on streptavidin probe, antibody in solution
T2 construct: extracellular domain; also called biotinylated CD40 ECD-Fc; not shown: Fc
T2 sequence (P25942 21-193 limits assumed): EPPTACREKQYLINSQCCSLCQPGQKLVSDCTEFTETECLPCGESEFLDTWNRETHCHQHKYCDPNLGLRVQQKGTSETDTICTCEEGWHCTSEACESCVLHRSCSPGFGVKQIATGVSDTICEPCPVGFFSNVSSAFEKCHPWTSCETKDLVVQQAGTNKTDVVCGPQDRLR
Method: Binding affinity to recombinant CD40 ECD-Fc fusion protein were determined using Bio-Layer Interferometry (BLI) on Octet system. Briefly, biotinylated CD40 ECD-Fc were captured by streptavidin probe and the antibody association/dissociation were measured with light interferometry in realtime. KD were then calculated by Kₒₙ and Koff.

[3] = biological target: T1, CD40 protein displayed on cell surface; test: flow cytometry on HEKBlue CD40L reporter cells, fluorescent secondary antibody, median fluorescence
From the text: (§1) HEKBlue CD40L reporter cells were harvested and stained with anti-CD40 and fluorescent secondary antibodies. Antibodies binding are shown in median fluorescence intensity.

[4] = biological target: T1, CD40 protein displayed on cell surface; test: cell-based or functional assay
[5] = biological target: T1, CD40 protein displayed on cell surface; test: flow cytometry on HEKBlue CD40L reporter cells, fluorescent secondary antibody, median fluorescence intensity
From the text: as §1

| Binder | binding result [1] | Kd [2] [nM] | EC50 [3] [µg/mL] | EC50 in activating B cell assessed by CD80 expression (CD19+ cells, flow cytometry) [4] [nM] | EC50 in activating B cell assessed by CD86 expression (CD19+ cells, flow cytometry) [4] [nM] | EC50 in activating MoDC assessed by CD86 expression [4] [nM] | EC50 in activating monocyte derived dendritic cell (MoDC) assessed by CD80 expression [4] [nM] | EC50 of CD40 activation, SEAP activity (Quanti-Blue, absorbance at 650 nm) of HEKBlue CD40L reporter cells [4] [nM] | EC50 [5] [nM] |
| --- | --- | --- | --- | --- | --- | --- | --- | --- | --- |
| B1 | binds |  |  |  |  |  |  |  |  |
| B2 |  | 0.012 |  |  |  |  |  |  |  |
| B3 | binds |  |  |  |  |  |  |  |  |
| B4 |  | 0.00604 | 0.0541 | 0.0027 | 0.0015 | 1.3 | 0.74 | 0.34 | 0.36 |
| B5 |  | 0.084 |  |  |  |  |  |  |  |
| B6 |  | 0.041 | 0.123 | 0.41 | 0.021 | 1.7 | 1.6 | 10 | 0.82 |
| B7 |  | 0.377 | 0.0945 | 0.17 | 0.14 | 22 | 29 | 8 | 0.63 |
| B8 |  | 0.42 |  |  |  |  |  |  |  |
